Patent US9758785B2, “miR-520 microRNAs sensitize cancers to platinum-based therapy” (BAYLOR COLLEGE OF MEDICINE, priority 2012, dated 2017)
Entries after “also recorded” stand apart in the source; their conditions may differ.

Tested on: OVCAR8 xenografts
Assay: Intraperitoneal ovarian cancer xenograft growth and metastasis
Format: in vivo, mice
Conditions: for Total intraperitoneal tumor burden: between the three groups
Method: Permission to perform animal experiments was obtained from the Institutional Animal Care and Use Committee (IACUC) for Baylor College of Medicine. Eight-week female athymic (Foxn1^nu/nu) mice were purchased from the National Cancer Institute-Charles River and maintained on a standard diet ad lib. Each animal was inoculated intraperitoneally with 2.5×10^6 cells stably transfected with vector driving miR-520h, a non-targeting miRNA control or empty vector. Expression of miR-520h was measured in cell lines using Taqman assays immediately prior to inoculation. Tumor xenografts were followed weekly for tumor progression or regression using the Image Station In-Vivo FX system (Kodak Molecular Imaging Systems, New Haven, Conn.) using endogenous RFP encoded by the pLemiR vector as a tag. At each time point, mice were anesthetized with isoflurane and placed in an imaging chamber, after which, fluorescent intensity images with x-ray overlay were obtained and analyzed. At the completion of the study, mice were euthanized after sedation under isoflurane (Abbott Laboratories, North Chicago, Ill.). For experiments involving treatment, cisplatin was administered at 5 mg/kg to mice by tail vein injection weekly for 4 weeks, after which, 1.5 mg/kg was administered biweekly. Tumor volume and distribution for all animals in each experiment were documented and correlated with imaging results.
The in vitro observations indicate that miR520g/h and/or miR-520a alter the proliferations of established ovarian cancer cell lines and in some embodiments are reasonably expected to promote their growth and metastasis in vivo. The inventors utilized xenograft models to characterize this embodiment. Foxn1^nu/nu mice were implanted subcutaneously or intraperitoneally with 2.5 million cells stably transfected with miR-520g/h, non-silencing microRNA control or empty vector alone. […] This difference was documented not only when tumor burden was measured according to the number and size of RFP active tumors that met imaging thresholds, but could also directly measured at necropsy (FIG. 5F). […]

B1: hsa-mir-520h MI0003175 (nucleic acid, listed as Homo sapiens)
chain: UCCCAUGCUGUGACCCUCUAGAGGAAGCACUUUCUGUUUGUUGUCUGAGAAAAAACAAAGUGCUUCCCUUUAGAGUUACUGUUUGGGA
modifications: expressed or natural sequence
notes: synthetic mimic or stably expressed from pLemiR vector; written miR-520g/h interchangeably
Number and size of intraperitoneal implants (OVCAR8 cells stably expressing the microRNA, intraperitoneal, no cisplatin, vs non-silencing control or empty vector, listed as miR-520g/h): larger number of smaller xenografts; also recorded: large number of smaller implants | Total intraperitoneal tumor burden: did not differ significantly | Total intraperitoneal tumor burden (listed as miR-520g/h): did not differ
